Where two headings read alike, the source gives them in different places.
T1: TRBP (human, UniProt Q15633 1-366)
T1 sequence: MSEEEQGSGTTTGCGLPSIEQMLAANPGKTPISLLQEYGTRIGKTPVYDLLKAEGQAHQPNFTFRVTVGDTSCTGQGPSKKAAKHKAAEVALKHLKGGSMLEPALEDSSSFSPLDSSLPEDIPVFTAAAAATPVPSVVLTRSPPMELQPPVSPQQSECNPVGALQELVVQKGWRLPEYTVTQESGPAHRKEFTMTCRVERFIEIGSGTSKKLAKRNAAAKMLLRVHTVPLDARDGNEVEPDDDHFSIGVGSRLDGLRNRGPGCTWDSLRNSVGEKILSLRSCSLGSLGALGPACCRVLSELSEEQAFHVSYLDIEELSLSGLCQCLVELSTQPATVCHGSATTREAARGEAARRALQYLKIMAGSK

T2: TRBPpm (phospho-mimic) (human, UniProt Q15633 1-366, S142D;S152D;S283D;S286D)
T2 sequence: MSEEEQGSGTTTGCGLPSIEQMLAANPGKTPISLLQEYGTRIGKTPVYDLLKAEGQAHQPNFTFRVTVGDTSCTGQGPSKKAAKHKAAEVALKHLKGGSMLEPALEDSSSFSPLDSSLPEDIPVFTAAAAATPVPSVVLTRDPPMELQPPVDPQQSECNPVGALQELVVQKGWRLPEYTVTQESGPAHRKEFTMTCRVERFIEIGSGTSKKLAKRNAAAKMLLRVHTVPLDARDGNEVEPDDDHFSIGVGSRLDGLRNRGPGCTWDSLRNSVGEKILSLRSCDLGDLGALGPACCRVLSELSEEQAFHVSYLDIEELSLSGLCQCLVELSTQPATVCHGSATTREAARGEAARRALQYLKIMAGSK


Tests used:
[1] = target: human Dicer (human, UniProt Q9UPY3 1-1922); test: SEC
[2] = target: Dicer;TRBPRBD3 (human;human, UniProt Q9UPY3;Q15633 1-1922;293-366, |); test: filter binding
[3] = target: Dicer (human, UniProt Q9UPY3 1-1922); test: filter binding
[4] = target: Dicer;TRBPpm (phospho-mimic) (human;human, UniProt Q9UPY3;Q15633 1-1922;1-366, |S142D;S152D;S283D;S286D); test: filter binding
[5] = target: Dicer;TRBP (human;human, UniProt Q9UPY3;Q15633 1-1922;1-366, |); test: filter binding
[6] = target: T1, TRBP; test: filter binding
[7] = target: T2, TRBPpm (phospho-mimic); test: filter binding
[8] = target: T1, TRBP; test: filter binding; remark: listed apart in the source
[9] = target: T2, TRBPpm (phospho-mimic); test: filter binding; remark: listed apart in the source

Dicer, sequence (Q9UPY3 whole entry): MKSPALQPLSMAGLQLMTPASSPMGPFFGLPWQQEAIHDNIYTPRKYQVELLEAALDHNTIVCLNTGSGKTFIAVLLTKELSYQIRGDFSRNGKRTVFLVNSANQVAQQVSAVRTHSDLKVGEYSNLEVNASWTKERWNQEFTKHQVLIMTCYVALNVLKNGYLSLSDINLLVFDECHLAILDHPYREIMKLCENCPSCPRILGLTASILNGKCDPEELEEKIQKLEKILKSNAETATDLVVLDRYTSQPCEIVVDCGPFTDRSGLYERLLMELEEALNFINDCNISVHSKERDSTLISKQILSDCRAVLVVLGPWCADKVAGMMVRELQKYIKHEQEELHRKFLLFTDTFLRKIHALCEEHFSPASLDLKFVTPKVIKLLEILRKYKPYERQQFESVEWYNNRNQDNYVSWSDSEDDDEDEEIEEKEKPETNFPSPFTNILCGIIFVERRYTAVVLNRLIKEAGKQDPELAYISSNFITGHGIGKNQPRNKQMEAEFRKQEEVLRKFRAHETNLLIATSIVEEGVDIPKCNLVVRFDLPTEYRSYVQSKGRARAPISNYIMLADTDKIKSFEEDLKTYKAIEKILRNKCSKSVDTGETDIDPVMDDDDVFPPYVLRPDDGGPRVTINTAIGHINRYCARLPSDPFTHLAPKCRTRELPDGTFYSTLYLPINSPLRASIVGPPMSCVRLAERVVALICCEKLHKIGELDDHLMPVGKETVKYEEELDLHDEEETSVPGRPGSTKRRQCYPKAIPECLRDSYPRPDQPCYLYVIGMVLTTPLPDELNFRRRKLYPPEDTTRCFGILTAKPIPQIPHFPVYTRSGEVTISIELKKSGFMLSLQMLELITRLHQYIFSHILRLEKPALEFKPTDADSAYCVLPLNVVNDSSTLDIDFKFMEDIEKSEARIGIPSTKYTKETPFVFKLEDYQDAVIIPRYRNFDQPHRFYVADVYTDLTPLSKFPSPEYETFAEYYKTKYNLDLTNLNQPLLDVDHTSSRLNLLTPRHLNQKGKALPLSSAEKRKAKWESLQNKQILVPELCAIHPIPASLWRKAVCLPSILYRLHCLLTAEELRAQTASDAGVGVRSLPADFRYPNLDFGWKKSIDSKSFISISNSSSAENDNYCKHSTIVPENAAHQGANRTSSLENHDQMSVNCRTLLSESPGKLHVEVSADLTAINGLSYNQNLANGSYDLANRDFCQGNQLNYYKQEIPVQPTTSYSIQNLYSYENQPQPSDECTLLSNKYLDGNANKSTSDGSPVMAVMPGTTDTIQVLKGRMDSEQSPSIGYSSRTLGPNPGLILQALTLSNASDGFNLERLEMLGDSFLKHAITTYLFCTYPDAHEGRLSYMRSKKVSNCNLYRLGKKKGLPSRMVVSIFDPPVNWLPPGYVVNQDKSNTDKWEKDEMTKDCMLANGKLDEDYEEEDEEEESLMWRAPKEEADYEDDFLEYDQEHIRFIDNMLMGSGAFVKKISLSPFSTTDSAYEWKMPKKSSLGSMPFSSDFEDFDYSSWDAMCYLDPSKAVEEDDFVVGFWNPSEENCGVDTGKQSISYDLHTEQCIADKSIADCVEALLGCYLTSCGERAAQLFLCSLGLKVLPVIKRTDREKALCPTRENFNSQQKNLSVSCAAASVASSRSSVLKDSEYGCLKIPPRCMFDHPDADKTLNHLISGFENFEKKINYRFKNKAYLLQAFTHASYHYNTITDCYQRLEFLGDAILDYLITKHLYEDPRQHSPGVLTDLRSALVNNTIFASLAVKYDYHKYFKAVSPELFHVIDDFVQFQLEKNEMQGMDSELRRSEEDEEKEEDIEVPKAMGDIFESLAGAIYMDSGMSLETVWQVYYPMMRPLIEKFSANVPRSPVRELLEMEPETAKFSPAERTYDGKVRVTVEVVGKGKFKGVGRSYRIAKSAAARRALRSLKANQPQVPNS
Dicer;TRBPRBD3, sequence (Q9UPY3 whole entry, chain 1 of 2, one chain of several): as the sequence (Q9UPY3 whole entry) above
human Dicer, sequence (Q9UPY3 whole entry): as above
Dicer;TRBP, sequence (Q9UPY3 whole entry, one chain of several): as the sequence (Q9UPY3 whole entry) above
Dicer;TRBPpm (phospho-mimic), sequence (Q9UPY3 whole entry, chain 1 of 2, one chain of several): as the sequence (Q9UPY3 whole entry) above

Row | binding result [1] | Binder | Kd [2] [nM] | Kd [3] [nM] | Kd [4] [nM] | Kd [5] [nM] | Kd [6] [nM] | Kd [7] [nM] | Kd [8] [nM] | Kd [9] [nM]
1 | binds | HIV trans-activating response (TAR) RNA binding protein (TRBP) (natural protein, human, UniProt Q15633 1-366, looked up) MSEEEQGSGTTTGCGLPSIEQMLAANPGKTPISLLQEYGTRIGKTPVYDLLKAEGQAHQPNFTFRVTVGDTSCTGQGPSKKAAKHKAAEVALKHLKGGSMLEPALEDSSSFSPLDSSLPEDIPVFTAAAAATPVPSVVLTRSPPMELQPPVSPQQSECNPVGALQELVVQKGWRLPEYTVTQESGPAHRKEFTMTCRVERFIEIGSGTSKKLAKRNAAAKMLLRVHTVPLDARDGNEVEPDDDHFSIGVGSRLDGLRNRGPGCTWDSLRNSVGEKILSLRSCSLGSLGALGPACCRVLSELSEEQAFHVSYLDIEELSLSGLCQCLVELSTQPATVCHGSATTREAARGEAARRALQYLKIMAGSK |  |  |  |  |  |  |  | 
2 | binds | phospho-mimic mutant of TRBP (TRBPpm) (natural protein, human, UniProt Q15633 1-366, looked up) MSEEEQGSGTTTGCGLPSIEQMLAANPGKTPISLLQEYGTRIGKTPVYDLLKAEGQAHQPNFTFRVTVGDTSCTGQGPSKKAAKHKAAEVALKHLKGGSMLEPALEDSSSFSPLDSSLPEDIPVFTAAAAATPVPSVVLTRDPPMELQPPVDPQQSECNPVGALQELVVQKGWRLPEYTVTQESGPAHRKEFTMTCRVERFIEIGSGTSKKLAKRNAAAKMLLRVHTVPLDARDGNEVEPDDDHFSIGVGSRLDGLRNRGPGCTWDSLRNSVGEKILSLRSCDLGDLGALGPACCRVLSELSEEQAFHVSYLDIEELSLSGLCQCLVELSTQPATVCHGSATTREAARGEAARRALQYLKIMAGSK |  |  |  |  |  |  |  | 
3 |  | pre-let-7a (structured_RNA) RNA: UGAGGUAGUAGGUUGUAUAGUUUUAGGGUCACACCCACCACUGGGAGAUAACUAUACAAUCUACUGUCUUACC | 1.3 ± 0.1 | 1.8 ± 0.4 | < 0.04 | < 0.05 | 1.3 ± 0.2 | 2.9 ± 0.6 |  | 
4 |  | 35-bp duplex (pre-siRNA) (dsRNA) RNA 1: UGAGGUAGUAGGUUGUAUAGUUUGAAAGUUCACGAUU RNA 2: UCGUGAACUUUCAAACUAUACAACCUACUACCUCAAA | 3 ± 0.4 | 3.4 ± 0.5 |  | < 0.051 |  |  | < 0.09 | < 0.1

From publication PMC3005596 (Journal of molecular biology, 2010)
